Reference: patent US20060142192A1 (ZymoGenetics, published 2006)

What was measured:
Experiment in all cases: flow cytometry, biotinylated IL-17C (1 ug/ml) + streptavidin-PE on stably transfected BHK cells
murine ZcytoR21x6 = target: T1, murine ZcytoR21x6 (mouse, UniProt Q8BH06 24-637)
T1 construct: also called mouse ZcytoR21x6; mcytor21x6
T1 sequence: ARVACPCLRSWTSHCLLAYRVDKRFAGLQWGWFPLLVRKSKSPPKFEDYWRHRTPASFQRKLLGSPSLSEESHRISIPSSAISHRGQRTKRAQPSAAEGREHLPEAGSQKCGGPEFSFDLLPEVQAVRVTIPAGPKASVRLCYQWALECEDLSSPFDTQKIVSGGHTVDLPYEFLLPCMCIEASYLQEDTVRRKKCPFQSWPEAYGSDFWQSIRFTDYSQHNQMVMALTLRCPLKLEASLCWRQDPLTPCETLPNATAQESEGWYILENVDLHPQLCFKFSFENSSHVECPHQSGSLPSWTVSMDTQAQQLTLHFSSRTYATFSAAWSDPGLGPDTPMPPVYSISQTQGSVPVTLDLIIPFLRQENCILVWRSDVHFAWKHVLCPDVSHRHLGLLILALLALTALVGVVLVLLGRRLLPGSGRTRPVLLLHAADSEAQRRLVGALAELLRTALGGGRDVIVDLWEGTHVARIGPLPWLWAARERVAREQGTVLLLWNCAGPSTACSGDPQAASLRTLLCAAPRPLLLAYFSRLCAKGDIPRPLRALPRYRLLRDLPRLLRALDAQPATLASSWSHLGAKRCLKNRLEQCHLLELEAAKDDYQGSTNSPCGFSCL
Protocol: (§1) BHK cells stably transfected with human and mouse ZcytoR21 splice variants were plated and grown to confluency in T-75 flasks. Cells were lifted off using a non-protease reagent such as Versene (Invitrogen 15040-066), pelleted, and resuspended in a staining reagent (HBSS+1% BSA+0.1% NaAzide+10 mM HEPES) at 2×10e7 cells/ml and aliquoted to a 96-well Costar plate. IL-17C that has been labeled with biotin was independently added to cells at a concentration of 1 ug/ml. The cell/ligand mixture can be incubated for 1 hr at 4 degrees. The wells were washed 1× in staining reagent, and incubated in a secondary reagent containing staining reagent plus Streptavidin-PE (BD Pharmingen 554061) at a 1:100 ratio. The wells were incubated at 4° C. in the dark for 1 hr, followed by a 2× wash in staining media. The cells were then resuspended in a 1:1 mixture of staining media and Cytofix (BD Bioscience 554655) and incubated 10 minutes at RT. The cells were analysed by Flow Cytometry and by gating on the PE positive events for cells that bound IL-17C.

human ZcytoR21x13 = target: T2, human ZcytoR21x13 (human, UniProt Q8NFR9 24-667)
T2 construct: also called hcytor21x13
T2 sequence: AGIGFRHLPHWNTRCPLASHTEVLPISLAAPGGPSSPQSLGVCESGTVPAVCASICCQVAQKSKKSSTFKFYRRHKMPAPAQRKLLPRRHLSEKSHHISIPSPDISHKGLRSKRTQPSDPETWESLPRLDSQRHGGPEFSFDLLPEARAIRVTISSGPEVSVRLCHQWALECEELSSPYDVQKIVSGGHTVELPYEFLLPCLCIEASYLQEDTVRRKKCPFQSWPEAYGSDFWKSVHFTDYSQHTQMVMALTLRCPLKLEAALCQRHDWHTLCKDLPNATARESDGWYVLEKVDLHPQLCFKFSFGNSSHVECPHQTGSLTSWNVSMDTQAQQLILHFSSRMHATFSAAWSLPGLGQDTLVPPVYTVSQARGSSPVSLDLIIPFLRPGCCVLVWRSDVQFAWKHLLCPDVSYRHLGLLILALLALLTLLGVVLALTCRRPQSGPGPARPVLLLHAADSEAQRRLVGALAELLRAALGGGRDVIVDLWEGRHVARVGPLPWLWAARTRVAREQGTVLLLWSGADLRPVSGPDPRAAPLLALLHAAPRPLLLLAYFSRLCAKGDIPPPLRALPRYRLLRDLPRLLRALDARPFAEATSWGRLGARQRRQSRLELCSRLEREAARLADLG
Protocol: as §1

human ZcytoR21x6 = target: T3, human ZcytoR21x6 (human, UniProt Q8NFR9 24-667)
T3 construct: also called hcytor21x6
T3 sequence: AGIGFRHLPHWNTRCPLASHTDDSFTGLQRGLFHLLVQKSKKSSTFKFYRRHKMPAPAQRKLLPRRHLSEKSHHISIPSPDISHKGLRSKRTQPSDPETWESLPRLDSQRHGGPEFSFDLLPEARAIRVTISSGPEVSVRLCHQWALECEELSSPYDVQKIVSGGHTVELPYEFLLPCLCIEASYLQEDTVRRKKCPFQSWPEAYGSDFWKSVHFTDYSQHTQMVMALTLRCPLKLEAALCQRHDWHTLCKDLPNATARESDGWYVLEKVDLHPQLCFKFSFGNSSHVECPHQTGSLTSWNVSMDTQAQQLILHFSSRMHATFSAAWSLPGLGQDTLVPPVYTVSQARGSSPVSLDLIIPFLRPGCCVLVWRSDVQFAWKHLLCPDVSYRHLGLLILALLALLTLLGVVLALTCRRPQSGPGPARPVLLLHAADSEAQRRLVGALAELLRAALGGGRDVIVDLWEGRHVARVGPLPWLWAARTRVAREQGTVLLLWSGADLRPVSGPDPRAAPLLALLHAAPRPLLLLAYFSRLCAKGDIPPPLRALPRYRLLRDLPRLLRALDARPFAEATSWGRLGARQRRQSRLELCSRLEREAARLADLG
Protocol: as §1

binding result (murine ZcytoR21x6): binds
binding result (human ZcytoR21x13): binds
binding result (human ZcytoR21x6): binds
B1: human IL-17C (ligand)
chain: HHDPSLRGHPHSHGTPHCYSAEELPLGQAPPHLLARGAKWGQALPVALVSSLEAASHRGRHERPSATTQCPVLRPEEVLEADTHQRSISPWRYRVDTDEDRYPQKLAFAECLCRGCIDARTGRETAALNSVRLLQSLLVLRRRPCSRDGSGLPTPGAFAFHTEFIHVPVGCTCVLPRSV
modifications: biotin label in the binding assays (sites not given); unlabelled in the signalling assays
notes: it is the last residue of the open reading frame as I know it; Recombinant forms made carried a C-terminal Glu-Glu tag (BHK) or His tag (293F); also called biotinylated human IL-17C; human IL-17C (A903G)
